Experimental data as given in patent publication US20210070829A1 (ZHEJIANG DOER BIOLOGICS, published 2021).

How the values were obtained:
human GLP-1 receptor = human GLP-1 receptor (human, UniProt P43220 24-463); experiment: cell-based or functional assay
Glucagon receptor = experiment: cell-based or functional assay

| GLP-1R agonist activity EC50 (luciferase reporter) (human GLP-1 receptor) [nM] | GCGR agonist activity EC50 (luciferase reporter) (Glucagon receptor) [nM] | Binder |
| --- | --- | --- |
| 1.47 | 1.39 | C225L10F10 (Fc fusion) HSQGTFTSDYSKYLDERAAQDFVQWLMNTGPSSGAPPPSGGGGAGGGGAGGGGAESKYGPPCPPCPAPEAAGGPSVFLFPPKPKDTLMISRTPEVTCVVVDVSQEDPEVQFNWYVDGVEVHNAKTKPREEQFASTYRVVSVLTVLHQDWLNGKEYKCKVSNKGLPSSIEKTISKAKGQPREPQVYTLPPSQEEMTKNQVSLTCLVKGFYPSDIAVEWESNGQPENNYKTTPPVLDSDGSFFLYSRLTVDKSRWQEGNVFSCSVMHEALHNHYTQKSLSLSLG |
| 18.5 | 26.7 | C788L1F5 (Fc fusion) HSQGTFTSDYSKQMDSQRAQDFVQWLMNTKRNRNNIAGGGGSERKCCVECPPCPAPPVAGPSVFLFPPKPKDTLMISRTPEVTCVVVDVSHEDPEVQFNWYVDGVEVHNAKTKPREEQFNSTFRVVSVLTVVHQDWLNGKEYKCKVSNKGLPSSIEKTISKTKGQPREPQVYTLPPSREEMTKNQVSLTCLVKGFYPSDIAVEWESNGQPENNYKTTPPMLDSDGSFFLYSKLTVDKSRWQQGNVFSCSVMHEALHNHYTQKSLSLSPG |
| 1.41 | 1.27 | C627L13F10 (Fc fusion) HSQGTFTSDYSKQMDSQRAQDFVQWLMNGGPSSGAPPPSGGGGAGGGGAGGGGAAESKYGPPCPPCPAPEAAGGPSVFLFPPKPKDTLMISRTPEVTCVVVDVSQEDPEVQFNWYVDGVEVHNAKTKPREEQFASTYRVVSVLTVLHQDWLNGKEYKCKVSNKGLPSSIEKTISKAKGQPREPQVYTLPPSQEEMTKNQVSLTCLVKGFYPSDIAVEWESNGQPENNYKTTPPVLDSDGSFFLYSRLTVDKSRWQEGNVFSCSVMHEALHNHYTQKSLSLSLG |
